Experimental data: publication PMC5454376 (2017)
Residue numbers refer to the chain shown, from its start. Like-named read-outs stand apart in the source and are kept apart here. Where no end group is shown, it is not given here.

T1: Human His-Gαi3 ΔC9 (lacking the last nine residues) (human, UniProt P08754 1-345)
T1 chain: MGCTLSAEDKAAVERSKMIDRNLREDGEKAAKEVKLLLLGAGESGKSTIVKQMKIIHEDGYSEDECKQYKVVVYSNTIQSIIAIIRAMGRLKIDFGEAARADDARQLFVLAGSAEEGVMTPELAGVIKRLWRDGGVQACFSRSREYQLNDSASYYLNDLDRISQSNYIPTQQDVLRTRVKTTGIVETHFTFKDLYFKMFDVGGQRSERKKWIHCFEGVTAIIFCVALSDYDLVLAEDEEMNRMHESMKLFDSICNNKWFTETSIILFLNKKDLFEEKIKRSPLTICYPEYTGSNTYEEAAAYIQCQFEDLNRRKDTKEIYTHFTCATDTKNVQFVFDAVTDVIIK

T2: Human His-Gαi3 WT (human, UniProt P08754 1-354)
T2 chain: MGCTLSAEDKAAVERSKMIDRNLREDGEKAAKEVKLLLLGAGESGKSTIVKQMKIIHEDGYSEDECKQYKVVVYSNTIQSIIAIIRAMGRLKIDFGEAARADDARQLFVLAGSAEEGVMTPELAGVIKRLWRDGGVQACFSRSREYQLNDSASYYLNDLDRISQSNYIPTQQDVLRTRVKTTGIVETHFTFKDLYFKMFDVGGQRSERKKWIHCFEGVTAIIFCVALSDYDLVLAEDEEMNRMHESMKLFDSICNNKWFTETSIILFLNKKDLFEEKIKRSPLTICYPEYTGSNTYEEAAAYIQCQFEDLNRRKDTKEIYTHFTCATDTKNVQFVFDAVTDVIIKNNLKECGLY

T3: Full-length human Gαi3, untagged (NMR sample) (human, UniProt P08754 1-354)
T3 chain: T2 chain

T4: Gαi3 L249V (Homo sapiens)
T4 chain: T2 chain with L249V

B1: Fluorescein-labelled GIV peptide (residues 1,671–1,701) (peptide)
peptide: KTGSPGSEVVTLQQFLEESNKLTSVQIKSSS
modifications: not fully specified (N-terminus); also: 5,6-carboxyfluorescein coupled to resin-bound peptide after elongation, site not given here
B2: Fluorescein-labelled RGS12 GoLoco peptide (residues 1,185–1,221) (peptide)
peptide: DEAEEFFELISKAQSNRADDQRGLLRKEDLVLPEFLR
modifications: not fully specified (N-terminus); also: 5,6-carboxyfluorescein coupled to resin-bound peptide after elongation, site not given here

What was measured:
[1] = target: T1, Human His-Gαi3 ΔC9 (lacking the last …); assay: FP
[2] = target: T2, Human His-Gαi3 WT; assay: FP
[3] = target: Human His-Gαi3 I184 mutant (human, UniProt P08754 1-354); assay: FP
[4] = target: Human His-Gαi3 L37 mutant (human, UniProt P08754 1-354); assay: FP
[5] = target: Human His-Gαi3 K257 mutant (human, UniProt P08754 1-354); assay: FP
[6] = target: Human His-Gαi3 L36 mutant (human, UniProt P08754 1-354); assay: FP
[7] = target: Human His-Gαi3 G42 mutant (human, UniProt P08754 1-354); assay: FP
[8] = target: Human His-Gαi3 W258 mutant (human, UniProt P08754 1-354); assay: FP
[9] = target: Human His-Gαi3 F259 mutant (human, UniProt P08754 1-354); assay: FP
[10] = target: Human His-Gαi3 L39 mutant (human, UniProt P08754 1-354); assay: FP
[11] = target: Human His-Gαi3 V218 mutant (human, UniProt P08754 1-354); assay: FP
[12] = target: T3, Full-length human Gαi3, untagged (NMR …); assay: FP; His-tag cleaved Gαi3
[13] = target: T5, Human His-Gαi3 K317 mutant (human, UniProt P08754 1-354); assay: FP; K317A
[14] = target: Human His-Gαi3 R313 mutant (human, UniProt P08754 1-354); assay: FP
[15] = target: T2, Human His-Gαi3 WT; assay: FP
[16] = target: Human His-Gαi3 N256A (human, UniProt P08754 1-354, N256 mutated to A); assay: FP
[17] = target: Human His-Gαi3 S252D (human, UniProt P08754 1-354, S252D); assay: FP
[18] = target: T2, Human His-Gαi3 WT; assay: FP
[19] = target: T4, Gαi3 L249V; assay: FP
[20] = target: Human His-Gαi3 L249H (human, UniProt P08754 1-354, L249H); assay: FP
[21] = target: T5, Human His-Gαi3 K317 mutant; assay: FP; K317W
[22] = target: Human His-Gαi3 S252A (human, UniProt P08754 1-354, S252 mutated to A); assay: FP
[23] = target: Human His-Gαi3 W211A (human, UniProt P08754 1-354, W211A); assay: FP

Row | Binder | Kd [3] | Kd [4] | Kd [5] | Kd [6] | Kd [7] | Kd [8] | Kd [9] | Kd [10] | Kd [11] | Kd [17] | Kd [18] | Kd [19] | Kd [20] | further results
1 | B1 | 1910 nM | 478 nM | 870 nM | 706 nM | 377 nM | 1820 nM | 1260 nM | 3080 nM | 362 nM | 3090 nM | 581 nM | 1370 nM | 4410 nM | Kd [1]: 700 nM; Kd [2]: 580 nM; Kd [12]: 680 nM; Kd [13]: 590 nM; Kd [14]: 800 nM; Kd [15]: 580 nM; Kd [16]: 1040 nM; Kd [21]: 510 nM
2 | B2 | 83 nM | 80 nM | 86 nM | 119 nM | 98 nM | 63 nM | 187 nM | 176 nM | 104 nM | 336 nM | 54 nM | 84 nM | 266 nM | Kd [22]: 35 nM; Kd [23]: 61 nM
